Article PMC10716038, “Talin and kindlin use integrin tail allostery and direct binding to activate integrins” (Nature Structural & Molecular Biology, 2023)
Several values for one entry are separate records, joined by “and”; a condition that tells them apart may be missing. Equal entries are not always repeated. No end group written: not given here.

Tests used:
kindlin-2 (KIND2) = target: T1, kindlin-2 (KIND2) (UniProt Q8CIB5 1-680); assay: MST; apparent; KIND2 titrated to 488–β3-CT in the presence of 250-450 µM TLN2-F3; MST buffer; conditions: both partners purified
T1 construct: kindlin-2 (KIND2), recombinant; with the F1 loop and the PH domain (unlike ΔKIND2); source: E. coli Rosetta, purified (IMAC, SEC); not shown: His10-SUMO, N-terminal, cleaved
T1 sequence (looked up): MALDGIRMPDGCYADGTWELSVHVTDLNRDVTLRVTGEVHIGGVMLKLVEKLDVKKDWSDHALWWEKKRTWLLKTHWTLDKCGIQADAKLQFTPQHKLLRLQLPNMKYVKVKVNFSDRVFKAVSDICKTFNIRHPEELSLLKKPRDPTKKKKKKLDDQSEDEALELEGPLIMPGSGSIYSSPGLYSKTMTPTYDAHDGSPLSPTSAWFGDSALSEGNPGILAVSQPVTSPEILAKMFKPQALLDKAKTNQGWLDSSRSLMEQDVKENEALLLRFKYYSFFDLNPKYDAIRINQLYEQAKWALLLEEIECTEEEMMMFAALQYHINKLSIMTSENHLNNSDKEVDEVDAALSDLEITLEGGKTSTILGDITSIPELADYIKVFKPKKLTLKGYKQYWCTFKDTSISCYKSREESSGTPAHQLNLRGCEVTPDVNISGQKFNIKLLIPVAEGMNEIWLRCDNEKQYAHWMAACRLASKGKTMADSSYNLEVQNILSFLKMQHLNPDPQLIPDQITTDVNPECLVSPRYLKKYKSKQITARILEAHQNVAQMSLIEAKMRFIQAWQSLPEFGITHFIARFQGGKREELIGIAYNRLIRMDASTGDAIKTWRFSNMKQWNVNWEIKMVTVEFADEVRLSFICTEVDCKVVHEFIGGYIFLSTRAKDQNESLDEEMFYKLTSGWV

[1] = target: T2, talin-2 head domain (THD2) (UniProt Q71LX4 1-408); assay: MST; apparent; THD1 titrated to 488–β1-CT or THD2 to 488–β3-CT in the presence of 30 µM KIND2; MST buffer; conditions: both partners purified
T2 construct: talin-2 (TLN2) head domain (THD), residues 1-408; source: E. coli (DE3) Rosetta 2, purified (IMAC, SEC); not shown: His10-SUMO, N-terminal, cleaved
T2 sequence (Q71LX4 1-408): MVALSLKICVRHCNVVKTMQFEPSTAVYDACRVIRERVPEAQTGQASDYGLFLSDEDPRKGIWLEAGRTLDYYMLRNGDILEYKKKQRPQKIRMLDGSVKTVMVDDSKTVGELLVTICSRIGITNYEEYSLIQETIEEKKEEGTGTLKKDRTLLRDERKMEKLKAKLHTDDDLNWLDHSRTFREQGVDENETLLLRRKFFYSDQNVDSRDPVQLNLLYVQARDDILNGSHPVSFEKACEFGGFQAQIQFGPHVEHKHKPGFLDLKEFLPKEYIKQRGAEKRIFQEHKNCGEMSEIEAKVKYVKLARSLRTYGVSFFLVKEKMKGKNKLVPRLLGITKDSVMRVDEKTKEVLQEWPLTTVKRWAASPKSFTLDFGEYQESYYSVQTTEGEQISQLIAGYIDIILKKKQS

B1: ATTO 488-labeled integrin β3 cytoplasmic tail (488–β3-CT) (peptide, UniProt O54890 741-787, looked up)
peptide: {ATTO 488}-KLLITIHDRKEFAKFEEERARAKWDTANNPLYKEATSTFTNITYRGT
notes: integrin β3 cytoplasmic tail (β3-CT); source: synthetic peptide (MPIB Core Facility)
Which Kd (kindlin-2 (KIND2)) does the source give for B1 here?
Its Kd is 55.8 µM and 30.2 µM and 54.2 µM.

What about the Kd [1] of the same binder?
The Kd was 39.1 µM and 36.2 µM and 54 µM.
